In paper PMC3169630:

Columns and labels:
[1] = molecular target: recombinant human Siglec-7 Fc fusion protein (human) (UniProt Q9Y286); assay: SPR; BIAcore 3000, CM5 chip; Siglec-Fc immobilised at high density (12000–20000 RU); gp120 in PBS or HBS-P injected at 20 µL/min; KD from kinetic curve fitting
[2] = molecular target: recombinant human Siglec-5 Fc fusion protein (human) (UniProt O15389); assay: as above
[3] = molecular target: recombinant human Siglec-3 Fc fusion protein (human) (UniProt P20138); assay: as above
Sequence of UniProt P20138 (P20138 18-259): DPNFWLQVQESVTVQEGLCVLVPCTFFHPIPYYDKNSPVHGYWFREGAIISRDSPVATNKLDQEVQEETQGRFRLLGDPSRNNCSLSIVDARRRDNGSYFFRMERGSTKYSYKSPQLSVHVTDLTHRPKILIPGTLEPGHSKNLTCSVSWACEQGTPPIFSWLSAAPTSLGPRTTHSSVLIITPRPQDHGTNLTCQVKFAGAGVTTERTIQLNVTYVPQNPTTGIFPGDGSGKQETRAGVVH

[4] = molecular target: recombinant human Siglec-7 Fc fusion protein (human) (UniProt Q9Y286); assay: SPR; BIAcore 3000, CM5 chip; Siglec-Fc immobilised at moderate density (2000–7000 RU; capture with immobilized protein A or amine cross-link); gp120 10–500 nM in PBS or HBS-P injected at 20 µL/min; KD from kinetic curve fitting
[5] = molecular target: recombinant human Siglec-1-Fc (four N-terminal Ig domains of hSiglec-1 fused to the Fc regions of human IgG1) (human); assay: as above
[6] = molecular target: recombinant human Siglec-5 Fc fusion protein (human) (UniProt O15389); assay: as above
[7] = molecular target: recombinant human Siglec-9 Fc fusion protein (human) (UniProt Q9Y336); assay: as above
Sequence of UniProt Q9Y336 (Q9Y336 18-348): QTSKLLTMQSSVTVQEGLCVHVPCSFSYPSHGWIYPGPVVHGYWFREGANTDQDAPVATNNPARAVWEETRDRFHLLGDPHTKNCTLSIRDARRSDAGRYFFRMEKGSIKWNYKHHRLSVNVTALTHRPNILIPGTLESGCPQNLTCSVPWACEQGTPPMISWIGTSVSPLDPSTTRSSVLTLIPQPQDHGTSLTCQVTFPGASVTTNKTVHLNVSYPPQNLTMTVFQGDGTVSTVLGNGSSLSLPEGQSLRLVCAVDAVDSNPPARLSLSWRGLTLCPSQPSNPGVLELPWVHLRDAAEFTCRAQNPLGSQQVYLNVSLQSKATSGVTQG

[8] = molecular target: recombinant human Siglec-3 Fc fusion protein (human) (UniProt P20138); assay: as above

Sequence of UniProt O15389 (O15389 17-441): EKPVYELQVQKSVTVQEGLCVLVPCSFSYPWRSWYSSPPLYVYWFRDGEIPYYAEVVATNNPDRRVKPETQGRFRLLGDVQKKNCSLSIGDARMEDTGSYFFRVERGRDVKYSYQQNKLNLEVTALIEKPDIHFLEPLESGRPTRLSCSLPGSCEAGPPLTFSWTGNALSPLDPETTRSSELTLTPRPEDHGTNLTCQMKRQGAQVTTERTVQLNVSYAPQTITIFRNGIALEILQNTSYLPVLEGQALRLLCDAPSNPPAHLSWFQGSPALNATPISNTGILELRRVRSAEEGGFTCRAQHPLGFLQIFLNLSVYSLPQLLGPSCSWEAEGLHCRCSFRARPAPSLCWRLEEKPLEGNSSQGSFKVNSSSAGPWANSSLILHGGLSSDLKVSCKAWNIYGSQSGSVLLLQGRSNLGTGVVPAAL
Sequence of UniProt Q9Y286 (Q9Y286 19-353): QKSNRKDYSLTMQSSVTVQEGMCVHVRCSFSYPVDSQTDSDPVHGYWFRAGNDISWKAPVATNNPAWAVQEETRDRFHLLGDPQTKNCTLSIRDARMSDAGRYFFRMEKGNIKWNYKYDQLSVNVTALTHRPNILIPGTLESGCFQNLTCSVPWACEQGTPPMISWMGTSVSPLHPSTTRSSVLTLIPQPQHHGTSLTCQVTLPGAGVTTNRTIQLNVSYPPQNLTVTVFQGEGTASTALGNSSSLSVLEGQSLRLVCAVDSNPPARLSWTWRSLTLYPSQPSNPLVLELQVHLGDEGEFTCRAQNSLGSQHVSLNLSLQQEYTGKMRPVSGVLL

| Substance | Kd [1] | Kd [2] | Kd [3] | Kd [4] | Kd [5] | Kd [6] | Kd [7] | Kd [8] |
| --- | --- | --- | --- | --- | --- | --- | --- | --- |
| recombinant gp120 from the 92UG21-9 HIV-1 isolate (natural protein) | 50 nM | 50 nM | 80 nM | 49200 nM | 80 nM | 47100 nM | 50 nM | 3800 nM |
| recombinant gp120 from the 92US715 HIV-1 isolate (natural protein) | 40 nM | 20 nM | 8 nM | 53400 nM | 130 nM | 9400 nM | 23 nM | 57800 nM |
| recombinant gp120 from the 93MW959 HIV-1 isolate (natural protein) | 20 nM | 15 nM | 12 nM |  |  |  |  |  |
| recombinant gp120 from the 93UG037 HIV-1 isolate (monomeric) (natural protein) | 94 nM | 54 nM | 51 nM | 9900 nM | 6300 nM | 20300 nM | 100 nM |  |
| recombinant gp120 from the SIVsmm PBj1.9 isolate (natural protein) | 19 nM | 14 nM | 180 nM | 35400 nM | 120 nM | 50500 nM | 270 nM | 54500 nM |
| trimeric gp120 from the 93UG037 strain fused with a trimerization domain from T4 bacteriophage fibritin |  |  |  | 2700 nM | 900 nM | 5100 nM | 80 nM |  |
